The target in data set [1] is T1, H-TKQTARK(Me3)STGGKAPR-OH (TR-15, H3 3-17 K9me3 peptide).
T1 chain: TKQTARKSTGGKAPR

The target of data set [2] is H3 31-41 K36me3 peptide, P68431.

B1: Human KDM4A 1-347 (His6-tagged, expressed in E. coli from pET28a) (protein)
chain: MASESETLNPSARIMTFYPTMEEFRNFSRYIAYIESQGAHRAGLAKVVPPKEWKPRASYDDIDDLVIPAPIQQLVTGQSGLFTQYNIQKKAMTVREFRKIANSDKYCTPRYSEFEELERKYWKNLTFNPPIYGADVNGTLYEKHVDEWNIGRLRTILDLVEKESGITIEGVNTPYLYFGMWKTSFAWHTEDMDLYSINYLHFGEPKSWYSVPPEHGKRLERLAKGFFPGSAQSCEAFLRHKMTLISPLMLKKYGIPFDKVTQEAGEFMITFPYGYHAGFNHGFNCAESTNFATRRWIEYGKQAVLCSCRKDMVKISMDVFVRKFQPERYKLWKAGKDNTVIDHTLPT
With B1, the Km (µM), FDH-coupled demethylase assay amounted to 92.5 µM in data set [1] and 170 µM in data set [2].

B2: Human KDM4B 1-348 (His6-tagged, expressed in E. coli from pET28a) (protein)
chain: MGSEDHGAQNPSCKIMTFRPTMEEFKDFNKYVAYIESQGAHRAGLAKIIPPKEWKPRQTYDDIDDVVIPAPIQQVVTGQSGLFTQYNIQKKAMTVGEYRRLANSEKYCTPRHQDFDDLERKYWKNLTFVSPIYGADISGSLYDDDVAQWNIGSLRTILDMVERECGTIIEGVNTPYLYFGMWKTTFAWHTEDMDLYSINYLHFGEPKSWYAIPPEHGKRLERLAIGFFPGSSQGCDAFLRHKMTLISPIILKKYGIPFSRITQEAGEFMITFPYGYHAGFNHGFNCAESTNFATLRWIDYGKVATQCTCRKDMVKISMDVFVRILQPERYELWKQGKDLTVLDHTRPT
For the protein B2, the Km (µM), FDH-coupled demethylase assay was 88.3 µM in data set [1] and 138 µM in data set [2].

The values above are taken from patent US20180087118.
